Results as given in US20220402980A1 (published 2022).
Like-named read-outs stand apart in the source and are kept apart here. Bridges are numbered along the chain shown (N, C = ends). Where no end group is shown, it is not given here. [ ]: non-standard residue; d: D form. maleimide‑NOTA = 1,4,7-triazacyclononane-1,4-bis-acetic acid-7-maleimidoethylacetamide; Lys(N3) = [N-]=[N+]=NCCCC[C@H](N)C(=O)O; Pra = C#CC[C@H](N)C(=O)O

Columns and labels:
[1] = target: T1, recombinant human αvβ6 extracellular domain (R&D Systems) (human, UniProt P06756 31-992; P18564 22-709)
T1 chain 1: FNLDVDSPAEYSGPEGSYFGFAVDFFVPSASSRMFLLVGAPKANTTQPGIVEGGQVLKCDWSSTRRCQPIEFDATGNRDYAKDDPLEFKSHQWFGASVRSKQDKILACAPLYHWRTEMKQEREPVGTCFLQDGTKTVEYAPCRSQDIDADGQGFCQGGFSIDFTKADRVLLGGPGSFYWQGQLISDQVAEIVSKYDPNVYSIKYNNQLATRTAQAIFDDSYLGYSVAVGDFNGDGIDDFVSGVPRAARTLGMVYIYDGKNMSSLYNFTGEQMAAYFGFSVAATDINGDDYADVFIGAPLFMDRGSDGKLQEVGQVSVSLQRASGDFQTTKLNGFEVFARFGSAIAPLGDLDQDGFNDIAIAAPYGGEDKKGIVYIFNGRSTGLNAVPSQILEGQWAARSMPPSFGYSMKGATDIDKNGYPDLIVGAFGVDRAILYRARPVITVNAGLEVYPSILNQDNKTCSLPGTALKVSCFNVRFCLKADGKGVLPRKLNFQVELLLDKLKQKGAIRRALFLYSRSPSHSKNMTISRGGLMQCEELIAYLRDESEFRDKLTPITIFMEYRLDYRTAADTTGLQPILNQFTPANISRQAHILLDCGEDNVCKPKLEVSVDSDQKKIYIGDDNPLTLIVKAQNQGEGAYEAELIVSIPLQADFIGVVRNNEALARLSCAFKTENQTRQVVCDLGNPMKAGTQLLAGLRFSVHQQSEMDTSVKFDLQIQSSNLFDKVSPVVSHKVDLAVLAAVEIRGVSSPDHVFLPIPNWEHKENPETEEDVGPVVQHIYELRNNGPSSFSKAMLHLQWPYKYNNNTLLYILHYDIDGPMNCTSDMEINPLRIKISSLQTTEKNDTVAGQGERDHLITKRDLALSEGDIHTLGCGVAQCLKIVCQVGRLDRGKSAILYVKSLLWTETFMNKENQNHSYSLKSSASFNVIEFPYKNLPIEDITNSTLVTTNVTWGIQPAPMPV
T1 chain 2: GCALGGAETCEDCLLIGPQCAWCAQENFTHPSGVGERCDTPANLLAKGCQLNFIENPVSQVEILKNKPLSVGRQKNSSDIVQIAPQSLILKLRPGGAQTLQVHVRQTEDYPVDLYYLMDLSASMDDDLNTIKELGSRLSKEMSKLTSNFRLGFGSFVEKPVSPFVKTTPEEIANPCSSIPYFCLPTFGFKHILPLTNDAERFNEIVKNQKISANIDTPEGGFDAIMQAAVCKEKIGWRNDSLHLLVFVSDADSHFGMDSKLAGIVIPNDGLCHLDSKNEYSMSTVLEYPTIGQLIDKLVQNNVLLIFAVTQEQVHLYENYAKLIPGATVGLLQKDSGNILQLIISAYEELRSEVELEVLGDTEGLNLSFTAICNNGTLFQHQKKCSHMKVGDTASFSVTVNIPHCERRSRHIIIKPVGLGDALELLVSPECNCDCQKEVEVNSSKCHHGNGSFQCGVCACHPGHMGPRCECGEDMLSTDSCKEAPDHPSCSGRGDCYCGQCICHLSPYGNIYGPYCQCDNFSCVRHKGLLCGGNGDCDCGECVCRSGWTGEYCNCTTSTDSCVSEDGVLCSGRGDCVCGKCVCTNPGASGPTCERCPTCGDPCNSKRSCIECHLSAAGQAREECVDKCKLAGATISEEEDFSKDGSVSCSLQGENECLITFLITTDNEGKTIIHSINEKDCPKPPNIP

[2] = target: T2, cell-surface expressed αvβ6 on human cells (5637 bladder cancer cells, HaCaT keratinocytes, BxPC-3 pancreatic … (human, UniProt P06756 31-1048; P18564 22-788); assay: FACS
T2 chain 1: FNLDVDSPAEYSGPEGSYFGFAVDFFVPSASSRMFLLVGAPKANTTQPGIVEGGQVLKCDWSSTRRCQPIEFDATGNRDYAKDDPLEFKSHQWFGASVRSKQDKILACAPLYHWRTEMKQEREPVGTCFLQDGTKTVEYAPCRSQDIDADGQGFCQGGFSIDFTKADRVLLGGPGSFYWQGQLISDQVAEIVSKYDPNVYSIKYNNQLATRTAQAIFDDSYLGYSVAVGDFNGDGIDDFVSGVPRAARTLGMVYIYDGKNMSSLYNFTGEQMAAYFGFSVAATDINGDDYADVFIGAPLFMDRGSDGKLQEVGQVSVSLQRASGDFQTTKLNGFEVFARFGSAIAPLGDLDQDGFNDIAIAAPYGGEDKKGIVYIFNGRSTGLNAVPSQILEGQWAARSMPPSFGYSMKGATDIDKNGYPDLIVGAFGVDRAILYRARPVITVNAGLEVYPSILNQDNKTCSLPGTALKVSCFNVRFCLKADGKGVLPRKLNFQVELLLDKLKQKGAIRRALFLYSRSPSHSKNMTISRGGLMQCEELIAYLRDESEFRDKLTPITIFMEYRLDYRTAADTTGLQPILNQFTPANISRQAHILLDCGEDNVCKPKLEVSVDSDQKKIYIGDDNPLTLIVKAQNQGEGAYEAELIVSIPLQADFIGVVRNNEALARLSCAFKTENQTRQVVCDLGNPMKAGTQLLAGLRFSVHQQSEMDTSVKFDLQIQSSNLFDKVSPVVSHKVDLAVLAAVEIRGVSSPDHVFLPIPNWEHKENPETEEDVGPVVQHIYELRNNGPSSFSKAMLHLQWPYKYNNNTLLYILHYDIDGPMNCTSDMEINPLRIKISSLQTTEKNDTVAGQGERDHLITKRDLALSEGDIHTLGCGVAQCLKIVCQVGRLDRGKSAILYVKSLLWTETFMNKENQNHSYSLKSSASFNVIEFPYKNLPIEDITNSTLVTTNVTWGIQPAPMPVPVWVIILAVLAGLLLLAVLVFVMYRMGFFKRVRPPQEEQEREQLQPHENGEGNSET
T2 chain 2: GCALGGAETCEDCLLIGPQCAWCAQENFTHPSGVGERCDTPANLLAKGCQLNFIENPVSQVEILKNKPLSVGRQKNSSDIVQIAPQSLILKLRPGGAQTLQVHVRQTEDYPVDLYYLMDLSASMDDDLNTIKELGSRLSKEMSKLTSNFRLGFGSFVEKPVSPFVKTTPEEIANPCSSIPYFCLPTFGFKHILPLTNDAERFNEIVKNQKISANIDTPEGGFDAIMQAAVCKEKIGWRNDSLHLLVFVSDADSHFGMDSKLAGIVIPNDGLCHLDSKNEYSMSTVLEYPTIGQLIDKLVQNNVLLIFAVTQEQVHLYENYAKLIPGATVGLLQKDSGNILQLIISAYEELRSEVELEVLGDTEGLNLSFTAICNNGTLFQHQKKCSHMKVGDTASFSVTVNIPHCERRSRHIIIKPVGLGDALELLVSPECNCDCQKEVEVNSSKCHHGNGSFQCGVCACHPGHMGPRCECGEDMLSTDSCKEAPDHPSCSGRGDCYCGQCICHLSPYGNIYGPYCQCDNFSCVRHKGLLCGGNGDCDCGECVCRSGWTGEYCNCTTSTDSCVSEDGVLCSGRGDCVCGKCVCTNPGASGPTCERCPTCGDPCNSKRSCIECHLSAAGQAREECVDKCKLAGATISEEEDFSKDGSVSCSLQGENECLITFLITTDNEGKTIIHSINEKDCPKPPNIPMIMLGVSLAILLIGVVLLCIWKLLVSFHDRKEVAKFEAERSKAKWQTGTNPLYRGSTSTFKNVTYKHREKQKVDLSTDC

[3] = target: T1, recombinant human αvβ6 extracellular …
[4] = target: T3, αvβ8 integrin (purified, coated on microtiter plates) (UniProt P06756 31-992; P26012 43-684)
T3 chain 1: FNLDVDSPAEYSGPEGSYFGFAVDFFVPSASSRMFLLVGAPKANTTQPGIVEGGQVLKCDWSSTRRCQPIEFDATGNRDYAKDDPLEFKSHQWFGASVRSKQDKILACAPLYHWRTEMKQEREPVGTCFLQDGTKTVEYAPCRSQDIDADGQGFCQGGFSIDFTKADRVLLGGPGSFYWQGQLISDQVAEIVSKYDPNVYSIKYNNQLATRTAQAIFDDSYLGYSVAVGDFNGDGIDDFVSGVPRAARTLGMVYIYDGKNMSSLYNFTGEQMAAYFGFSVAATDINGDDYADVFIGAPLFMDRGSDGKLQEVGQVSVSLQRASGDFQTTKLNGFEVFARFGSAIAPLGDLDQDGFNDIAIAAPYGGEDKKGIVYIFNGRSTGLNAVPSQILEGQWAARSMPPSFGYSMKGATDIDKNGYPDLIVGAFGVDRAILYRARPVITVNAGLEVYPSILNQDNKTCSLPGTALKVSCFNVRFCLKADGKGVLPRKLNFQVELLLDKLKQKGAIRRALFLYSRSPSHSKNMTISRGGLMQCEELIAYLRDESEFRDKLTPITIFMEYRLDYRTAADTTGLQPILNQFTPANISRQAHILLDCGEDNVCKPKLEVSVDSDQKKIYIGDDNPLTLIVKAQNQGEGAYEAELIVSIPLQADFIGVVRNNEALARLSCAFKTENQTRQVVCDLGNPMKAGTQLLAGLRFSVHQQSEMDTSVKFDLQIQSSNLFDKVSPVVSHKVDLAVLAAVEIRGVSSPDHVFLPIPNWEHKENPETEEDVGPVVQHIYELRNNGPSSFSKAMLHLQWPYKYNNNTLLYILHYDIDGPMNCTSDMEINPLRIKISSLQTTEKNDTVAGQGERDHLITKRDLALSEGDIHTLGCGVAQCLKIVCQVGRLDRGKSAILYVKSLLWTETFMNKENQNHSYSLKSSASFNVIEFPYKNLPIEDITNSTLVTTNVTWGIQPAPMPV
T3 chain 2: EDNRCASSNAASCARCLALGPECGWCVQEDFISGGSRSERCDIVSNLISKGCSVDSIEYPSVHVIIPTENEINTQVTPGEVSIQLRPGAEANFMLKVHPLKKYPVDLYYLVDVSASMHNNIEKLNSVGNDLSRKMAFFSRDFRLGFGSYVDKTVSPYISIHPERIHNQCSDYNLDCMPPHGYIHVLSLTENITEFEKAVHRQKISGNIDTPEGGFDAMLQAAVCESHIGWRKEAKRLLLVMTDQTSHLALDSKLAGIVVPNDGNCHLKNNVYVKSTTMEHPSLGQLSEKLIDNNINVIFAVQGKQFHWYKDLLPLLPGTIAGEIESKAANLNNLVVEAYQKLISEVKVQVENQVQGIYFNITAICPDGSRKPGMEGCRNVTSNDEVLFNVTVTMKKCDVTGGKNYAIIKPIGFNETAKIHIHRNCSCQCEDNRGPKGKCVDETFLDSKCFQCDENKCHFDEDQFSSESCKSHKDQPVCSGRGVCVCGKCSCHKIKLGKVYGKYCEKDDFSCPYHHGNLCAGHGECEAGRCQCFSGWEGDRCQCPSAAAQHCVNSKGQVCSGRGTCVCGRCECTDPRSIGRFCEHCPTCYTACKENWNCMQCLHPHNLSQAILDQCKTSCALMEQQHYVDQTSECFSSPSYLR

[5] = target: T1, recombinant human αvβ6 extracellular …
[6] = target: T2, cell-surface expressed αvβ6 on human …; assay: FACS

| Binder | Ki [1] | IC50 [2] | further results |
| --- | --- | --- | --- |
| C(maleimide‑NOTA)FETLRGEERILSILRHQNLLKELQD [NOTA-2a (peptide 2a coupled to maleimide-NOTA)] | > 1000 nM |  |  |
| FETLRGDERILSILRHQNLLKELQD [peptide 1 (CgA-derived peptide, residues 39-63), synthetic] |  | 640 nM |  |
| CFETLRGDLRILSILR[Pra]QNL[Lys(N3)]KELQD-NH2 (triazole 17-21) [peptide 5a] | 1.71 nM |  |  |
| CFETLRGEERILSILRHQNLLKELQD [peptide 2a] |  |  | Ki [3]: > 100 nM |
| C(IRDye 800CW maleimide)FETLRGDLRILSILR[Pra]QNL[Lys(N3)]KELQD-NH2 (triazole 17-21) [5a-IRDye (peptide 5a coupled via Cys to maleimide-IRDye 800CW)] |  |  | EC50 [4]: 1.9 nM; EC50 [5]: 2.8 nM |
| C(maleimide‑NOTA)FETLRGDLRILSILR[Pra]QNL[Lys(N3)]KELQD-NH2 (triazole 17-21) [NOTA-5a (peptide 5a coupled to maleimide-NOTA)] | 2.31 nM |  |  |
| FETLRGDLRILSILRHQNLLKELQD [peptide 4] |  | 16.9 nM | IC50 [6]: 80 nM |
| Ac-FETLRGDLRILSILR[Pra]QNL[Lys(N3)]KELQD-NH2 (triazole 16-20) [peptide 5 (triazole-stapled CgA39-63-derived peptide)] | 0.93 nM | 3.6 nM | Ki [3]: 0.84 nM; IC50 [6]: 25 nM |
